# Reference: patent US20250109209A1
# Assays:
# Cyno TL1A (cyno) [1] = molecular target: Cyno TL1A (cyno) (UniProt G7PRK8); assay: SPR, mAb format, average
# mouse TL1A (mouse) = mouse TL1A (mouse) (UniProt Q5UBV8); assay: SPR, mAb format, average
# human TL1A (human) [2] = molecular target: human TL1A (human) (UniProt O95150); assay: SPR, mAb format, average
# Cyno TL1A (cyno) [3] = molecular target: Cyno TL1A (cyno) (UniProt G7PRK8); assay: SPR, representative sensorgram with Cyno TL1A
# human TL1A (human) [4] = molecular target: human TL1A (human) (UniProt O95150); assay: selectivity ELISA: antibody pre-incubated with TL1A, inhibition of TL1A binding to plate-coated DcR3
# human TL1A (human) [5] = molecular target: human TL1A (human) (UniProt O95150); assay: selectivity ELISA: antibody pre-incubated with TL1A, inhibition of TL1A binding to plate-coated DR3
# human TL1A (human) [6] = molecular target: human TL1A (human) (UniProt O95150); assay: SPR, representative sensorgram with Human TL1A
# Sequence of human TL1A (human) (O95150 72-251 limits assumed): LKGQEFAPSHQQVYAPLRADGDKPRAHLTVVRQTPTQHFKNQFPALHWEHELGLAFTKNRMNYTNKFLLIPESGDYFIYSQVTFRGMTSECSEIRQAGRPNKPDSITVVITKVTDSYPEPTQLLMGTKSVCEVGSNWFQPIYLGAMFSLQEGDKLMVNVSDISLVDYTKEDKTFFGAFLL
# Sequence of Cyno TL1A (cyno) (G7PRK8 entry or part of it): as the sequence (O95150 72-251 limits assumed) above, with F39L, I78V counted along it
# Sequence of mouse TL1A (mouse) (Q5UBV8 76-252 V180M/M218T limits assumed): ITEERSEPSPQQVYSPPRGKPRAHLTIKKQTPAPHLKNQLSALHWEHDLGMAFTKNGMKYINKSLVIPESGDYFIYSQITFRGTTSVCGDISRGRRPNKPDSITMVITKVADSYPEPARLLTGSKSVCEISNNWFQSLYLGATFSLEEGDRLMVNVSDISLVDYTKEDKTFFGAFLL
binder,measurement,setting,value
"Heron2B (antibody, INN chains, looked up, V domains shown) VH: QVQLVQSGAEVKKPGASVKVSCKASGFDIQDTYMHWVKQRPGQGLEWMGRIDPASGHTKYDPKFQVRVTITRDTSTSTVYLELSSLRSEDTAVYYCARSGGLPDVWGQGTTVTVSS VL: EIVLTQSPGTLSLSPGERATLSCRASSSVSYMYWYQQKPGQAPRPLIYATSNLASGIPDRFSGSGSGTDFTLTISRLEPEDFAVYYCQQWEGNPRTFGGGTKLEIK",Kd,Cyno TL1A (cyno) [1],0.09 nM
same,Kd,mouse TL1A (mouse),81.9 µM
same,Kd,human TL1A (human) [2],0.365 nM
same,Kd,Cyno TL1A (cyno) [3],0.114 nM
same,IC50,human TL1A (human) [4],3.6 µg/mL
same,IC50,human TL1A (human) [5],6.3 µg/mL
same,Kd,human TL1A (human) [6],0.339 nM
